These results are taken from patent US20260167731A1 (DOMAIN THERAPEUTICS, published 2026).

Substitutions are numbered along the chain they refer to. Several values for one entry are separate records, joined by “and”; a condition that tells them apart may be missing. Equal entries are not always repeated.

Assay [1] concerns the target T1, human CCR8 (human, UniProt P51685 1-355). The assay is described as follows: cell-based or functional assay.
For assay [2], the target named is T1, human CCR8. The experiment in a line: cell-based or functional assay. The source holds these as a separate data set.
Assay [3] concerns the target T1, human CCR8. The experiment in a line: flow cytometry, inhibition of hCCL1-AF647 binding to hCCR8 CHO cells. On the procedure:
The hCCR8 transfected CHO cell line was dispatched at a density of 1·10⁵ per well in a 96-well plate. Cells were incubated for 30 min at 4° C. with or without anti-CCR8 mAb tested at 10 μg/mL then diluted at 1/3. Unbound antibodies were washed away with PBS (Gibco, Villebon-sur-Yvette, France) supplemented by 2% Fetal Bovine Serum (Invitrogen by Thermofisher Scientific, Illkirch-Graffenstaden, France) and 2 mM EDTA. […] After washing unbound ligands, CCL1 bound detection is quantified on a MacsQuant16 (Miltenyi, Gladbach, Germany) (R1 channel, 5 000 events per acquisition).
For IC₅₀ determination, a concentration response curve is performed using 8 concentrations of mAb. Curves are fitted and IC₅₀ of CCL1 binding blocking activity is calculated using the sigmoidal dose-response (variable slope) model on GraphPad Prism 9 (GraphPad Software, San Diego, CA, USA).
(In general: Flow cytometry measures light scatter and fluorescence of single cells or particles in a stream.)

The target of assay [4] is T1, human CCR8. The experiment in a line: flow cytometry, hCCR8 transfected CHOK1 cells. On the procedure: The same staining protocol was applied on human CCR8 transfected CHO cell line versus wild type CHO cell line, cutaneous T cell lymphoma HUT78 cell line and human activated T cell model.
Briefly, 1·10⁵ cells per well in a 96 well plate were incubated with a dilution of unconjugated anti-CCR8 mAb at 10 μg/mL then diluted at 1/3.33, 4 dilution points (during 30 min at 4° C.). In human activated T cells model, prior to mAb incubation, cells were first incubated with 200 nM of hCCL1 (R&D Systems, Minneapolis, MN, USA) or buffer PBS (Invitrogen by Thermofisher Scientific, Illkirch-Graffenstaden, France) supplemented by 2% Fetal Bovine Serum (Invitrogen by Thermofisher Scientific, Illkirch-Graffenstaden, France) and 2 mM EDTA (Invitrogen by Thermofisher Scientific, Illkirch-Graffenstaden, France) during 1 hour at 4° C. To determine EC50 value, 8 concentrations of anti-CCR8 mAb were tested. Unbound antibodies were washed away with PBS (Invitrogen by Thermofisher Scientific, Illkirch-Graffenstaden, France) supplemented by 2% Fetal Bovine Serum (Invitrogen by Thermofisher Scientific, Illkirch-Graffenstaden, France) and 2 mM EDTA (Invitrogen by Thermofisher Scientific, Illkirch-Graffenstaden, France). Subsequently, cells are centrifuged (5 min at 400 g) and bound antibody is detected with F(ab′)₂-Goat anti-Mouse IgG (H+L) Cross-Adsorbed Secondary Antibody, Alexa Fluor 488 (dilution 1/500) (Invitrogen by Thermofisher Scientific, Illkirch-Graffenstaden, France) or with F(ab′)₂-Goat anti-Human IgG Fc Secondary Antibody, PE (Invitrogen by Thermofisher Scientific, Illkirch-Graffenstaden, France) (dilution 1/1000) at 4° C. for 30 min. Detection reagent is washed away and cells are centrifuged (5 min at 400 g) and resuspended in 30 μL PBS. Bound detection antibody is quantified on a MacsQuant16 (Miltenyi, Gladbach, Germany) (B1 or B2 channel, 5000 events per acquisition). During the experiment, the respective isotype mAb controls (mouse IgG1, mouse IgG2a, mouse IgG2b, mouse IgG3 or human IgG1) (Biolegend, Amsterdam, The Netherlands) are included to exclude any unspecific binding events.

The target of assay [5] is pm1, modified CCR8 related peptide (human, sulfated tyrosine at Y15). The experiment in a line: ELISA on coated CCR8 peptide (500 ng/mL), OD [cont.]. As to the method:
(§1) The specific binding properties of antibodies were evaluated by ELISA with coated CCR8 related peptides (500 ng/mL) in carbonate/bicarbonate buffer. Different peptides were used as described in Table 1 (see Example 1). Each anti-CCR8 mAb was tested at 1 μg/mL then diluted at 1/10. After an incubation at room temperature during 90 min, unbound mAbs were removed by washings. […] After washings, 3,3′,5,5′-tetramethylbenzidine (TMB) (Interchim, Montlugon, France) was added for 15 min. Then the optical density (OD) was determined by using a multiplate reader (Tecan, Lyon, France) and correlated with mAb reactivity on the panel of coated peptides.
(An ELISA detects its analyte on a solid surface through an enzyme-linked reagent.)

Assay [6] deals with T2, pwt1, unmodified CCR8 related peptide (human, none (non-sulfated Y15, Y16, Y17)).
T2 construct: First 34 amino acids of human CCR8, synthetic; also called unmodified peptide
Described as above. As to the method:
as §1

Assay [7] has as its target pm4, modified CCR8 related peptide (human, sulfated tyrosines at Y15 and Y16). The assay is described as above. As to the method:
as §1

Assay [8] addresses pm3, modified CCR8 related peptide (human, sulfated tyrosine at Y17). The description is as above. On the procedure:
as §1

In assay [9] the target is pm2, modified CCR8 related peptide (human, sulfated tyrosine at Y16). The description is as above. On the procedure: as §1
Assay [10] addresses pm6, modified CCR8 related peptide (human, sulfated tyrosines at Y16 and Y17). The assay is described as above. As to the method:
as §1

Assay [11] addresses pm5, modified CCR8 related peptide (human, sulfated tyrosines at Y15 and Y17). Described as above. On the procedure: as §1
Assay [12] concerns the target pm8, modified CCR8 related peptide (human, sulfated tyrosines at Y15, Y16 and Y17). The assay is described as above. As to the method:
as §1

For assay [13], the target named is T1, human CCR8. The experiment in a line: cell-based or functional assay. The source holds these as a separate data set.
Assay [14] addresses T1, human CCR8. The assay is described as follows: cell-based or functional assay. The source holds these as a separate data set.

T2 sequence (peptide, as listed by the source): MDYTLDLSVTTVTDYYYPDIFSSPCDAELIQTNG
Chain of pm6, modified CCR8 related peptide (human, sulfated tyrosines at Y16 and Y17) (peptide, as listed by the source): as above
Chain of pm4, modified CCR8 related peptide (human, sulfated tyrosines at Y15 and Y16) (peptide, as listed by the source): as above
Chain of pm2, modified CCR8 related peptide (human, sulfated tyrosine at Y16) (peptide, as listed by the source): as above
Chain of pm3, modified CCR8 related peptide (human, sulfated tyrosine at Y17) (peptide, as listed by the source): as above
Chain of pm8, modified CCR8 related peptide (human, sulfated tyrosines at Y15, Y16 and Y17) (peptide, as listed by the source): as above
Chain of pm1, modified CCR8 related peptide (human, sulfated tyrosine at Y15) (peptide, as listed by the source): as above
Chain of pm5, modified CCR8 related peptide (human, sulfated tyrosines at Y15 and Y17) (peptide, as listed by the source): as above

B1: anti-CCR8 mAb 2-9 (antibody, V domains shown)
VH: QVQLQQPGSELVRPGASVKLSCKASGYTFTSYWMHWVKQRPGQGLEWIGNIWPGSASTNYDEKFKNKATLTVDTSSSTAYMQLSSLTSEDSAVYYCIRGGKGAMDYWSQGTSVTVSS
VL: DVVMTQIPLSLPVSLGDQASISCRSSQSLENSYGNTYLNWYLQKPGQSPQLLIYRVSNRFSGVLDRFSGSGSGTDFTLKISRVEAEDLGVYFCLQVTHVPPTFGAGTKLELK
For orientation: IC50 means the concentration that inhibits the measured activity by half. Consider B1, for which, in assay [1], the “IC50, CCL1 induced hCCR8 Gi2 signaling (BRET, HEK-293)” value (“IC50 … (BRET, HEK-293)” for short) is 0.026 µg/mL and 0.172 nM. Also, in [2], the “hCCL1 (100 nM) residual response in %, Protocol #2, mAb 0.08 µg/mL (0.53 nM)” value came to 99%; the “hCCL1 (100 nM) residual response in %, Protocol #2, mAb 0.4 µg/mL (2.67 nM)” value stood at 83%; the “hCCL1 (100 nM) residual response in %, Protocol #2, mAb 10 µg/mL (66.7 nM)” value was 56%; the “hCCL1 (100 nM) residual response in %, Protocol #3, mAb 0.05 µg/mL (0.33 nM)” value was found to be 116%. In assay [2], the “hCCL1 (100 nM) residual response in %, Protocol #3, mAb 0.5 µg/mL (3.33 nM)” value came out at 90% and the “hCCL1 (100 nM) residual response in %, Protocol #3, mAb 5 µg/mL (33.3 nM)” value stood at 45%. Also, the IC50 in assay [3] was 1.18 µg/mL and 7.92 nM. In [4], the “% positive cells” value worked out at 81.6% and the “MFI fold change to isotype ctrl” value was determined as 9.92 fold.

B2: anti-CCR8 mAb 2-5 (antibody, V domains shown)
VH: EVQLQQSGPELVKPGASVKISCKTSGYTFTEYTIHWVKQSHGKSLEWVGGINPDNGNTRYDQKFKGKATLTIDKSSSTAYMELRSLTSEDSAVYYCARVARSSGSGPYAMDYWGQGTSVTVSS
VL: DVVMTQTPLSLPVSLGDQASISCRCTQSLLHTNGDTYLHWYLQKPGQSPKLLIYKVSNRFSGVPDRFSGSGSGTDFTLKISRVEAEDLGVYFCSQSTHVPYTFGGGTKLEIK
B2: in [1], the “IC50 … (BRET, HEK-293)” value is 0.044 µg/mL and 0.291 nM. The binding result in assay [5], in assay [6], in assay [7], in assay [8], in [9] and in [10] was “binds” throughout. The binding result in assay [11] and in assay [12] was “binds” in each case. Besides, the IC50 in assay [3] is 1.15 µg/mL and 7.73 nM. Besides, the “% positive cells” value in assay [4] is 73.7%. The “MFI fold change to isotype ctrl” value in [4] amounted to 10.3 fold.

B3: anti-CCR8 mAb 2-7 (antibody, V domains shown)
VH: QVQLKESGPGLVAPSQSLSITCTVSGFSLTDYRVSWIRQPPGKGLEWLGVIWGGRSTYYNSALKSRLSISKDNSKSQVFLKMNSLQTDDTAMYYCAKQGDGYYALDYWGQGTSVTVSS
VL: B2 VL with C25S, T26S, L30V, T32S, N33Y, D35N, S68H, Y101P
In the case of B3, the “IC50 … (BRET, HEK-293)” value in assay [1] was 0.552 µg/mL and 3.68 nM. The binding result in assay [5], in assay [6], in assay [7], in assay [8], in assay [9] and in [10] was “binds” throughout. Further, the binding result in assay [11] and in assay [12] was “binds” throughout. Besides, the 50% inhibitory concentration (IC50) in assay [3] is 2.73 µg/mL and 18.3 nM. Besides, the “% positive cells” value in assay [4] turned out to be 57.7%. The “MFI fold change to isotype ctrl” value in [4] amounted to 3.84 fold. Further, the “IC50, CCL1 induced hCCR8 Gi2 signaling (BRET) at pH 6.5” value in assay [13] is 0.516 µg/ml and 3.44 nM. In addition, the “IC50, CCL1 induced hCCR8 Gi2 signaling (BRET) at pH 7.4” value in assay [13] was 0.82 µg/ml and 5.47 nM.

B4: chimeric anti-CCR8 mAb 2-17 (antibody, human IgG1, kappa)
heavy: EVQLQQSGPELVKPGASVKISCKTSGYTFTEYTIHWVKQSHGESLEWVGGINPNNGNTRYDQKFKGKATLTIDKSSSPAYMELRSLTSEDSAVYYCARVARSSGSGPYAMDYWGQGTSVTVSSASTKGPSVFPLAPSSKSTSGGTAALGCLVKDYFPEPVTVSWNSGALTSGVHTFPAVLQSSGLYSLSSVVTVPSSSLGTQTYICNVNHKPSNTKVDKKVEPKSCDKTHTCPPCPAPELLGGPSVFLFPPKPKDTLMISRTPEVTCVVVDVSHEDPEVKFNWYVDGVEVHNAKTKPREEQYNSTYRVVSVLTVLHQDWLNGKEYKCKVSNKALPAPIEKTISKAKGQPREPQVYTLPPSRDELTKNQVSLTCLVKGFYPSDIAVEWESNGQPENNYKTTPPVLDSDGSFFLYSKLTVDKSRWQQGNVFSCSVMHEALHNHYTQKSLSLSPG
light: DVVMTQTPLSLPVSLGDQASISCRCTQSLLHTNGDTYLHWYLQKPGQSPKLLIYKVSNRFSGVPDRFSGSGSGTDFTLKISRVEAEDLGVYFCSQSTHVPYTFGGGTKLEIKRTVAAPSVFIFPPSDEQLKSGTASVVCLLNNFYPREAKVQWKVDNALQSGNSQESVTEQDSKDSTYSLSSTLTLSKADYEKHKVYACEVTHQGLSSPVTKSFNRGEC
With B4, in assay [14], the “ADCC % Max lysis, HUT78 targets, NK cells Donor 3” value amounted to 14%; the “ADCC % Max lysis, HUT78 targets, NK cells Donor 4” value came to 15%; the “ADCC EC50, HUT78 targets, NK cells Donor 3” value was found to be 793 pM; the “ADCC EC50, HUT78 targets, NK cells Donor 4” value is 1520 pM.

B5: hypofucosylated (low fucosylated) chimeric anti-CCR8 mAb 2-19 (antibody, human IgG1, kappa)
heavy: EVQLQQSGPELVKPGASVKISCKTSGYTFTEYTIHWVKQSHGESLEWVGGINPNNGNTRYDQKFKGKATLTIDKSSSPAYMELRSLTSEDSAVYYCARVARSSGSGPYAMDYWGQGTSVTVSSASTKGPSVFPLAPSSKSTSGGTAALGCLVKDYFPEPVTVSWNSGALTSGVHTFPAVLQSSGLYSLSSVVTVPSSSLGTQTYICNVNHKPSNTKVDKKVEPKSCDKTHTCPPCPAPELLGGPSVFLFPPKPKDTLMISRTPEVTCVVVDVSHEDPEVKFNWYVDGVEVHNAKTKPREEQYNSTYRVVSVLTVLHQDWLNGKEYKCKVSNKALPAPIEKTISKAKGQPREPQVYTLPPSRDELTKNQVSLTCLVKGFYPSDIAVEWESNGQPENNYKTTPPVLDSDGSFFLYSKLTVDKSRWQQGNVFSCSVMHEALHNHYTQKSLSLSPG
light: B4 light
modifications: hypofucosylated Fc glycan
For B5, in [14], the “ADCC % Max lysis, HUT78 targets, NK cells Donor 3” value stood at 29%; the “ADCC % Max lysis, HUT78 targets, NK cells Donor 4” value was determined as 29%; the “ADCC EC50, HUT78 targets, NK cells Donor 3” value was 195 pM; the “ADCC EC50, HUT78 targets, NK cells Donor 4” value came out at 282 pM.

B6: anti-CCR8 mAb 2-6 (antibody, V domains shown)
VH: QVQLKESGPGLVAPSQSLSITCTVSGLSMNDYVVTWIRQPPGKGLEWLGVIWGGGNTYYNSDLKSRLSITKDNSKSQVFFKMSSLQTDDTAVYYCARRHRDYALDYWGQGISVTVSS
VL: ENVLTQSPAIMSASPGEKVTMTCRASSSVSSSYLHWYQQKSGASPKLWIYSTSNLASGVPARFSGSGSGTSYSLTISSVEAEDAATYYCQQYSGYPYTFGGGTKLEIK
As to B6, the “IC50 … (BRET, HEK-293)” value in assay [1] was 0.106 µg/mL and 0.706 nM. The binding result in assay [5], in assay [6], in assay [7], in [8], in assay [9] and in [10] was “binds” in each case. Further, the binding result in assay [11] and in assay [12] was “binds” each time. The IC50 in [3] was 1.25 µg/mL and 8.34 nM. In [4], the “% positive cells” value came out at 69.9%. Further, the “MFI fold change to isotype ctrl” value in [4] came to 5.81 fold.
